According to paper PMC10967792:

Tests used:
[1] = molecular target: human CC chemokine receptor 7 (hCCR7), stably expressed (human) (UniProt P32248)
[2] = molecular target: hCCR7-mNeongreen (CCR7 C-terminally tagged with mNeonGreen) (human) (UniProt P32248)

Row | Sequence | pEC50 of Gα12 activation (NanoBRET, G protein dissociation), HEK293A cells expressing CCR7 [1] | pEC50 of Gα12 activation (NanoBRET, G protein dissociation), U87 cells expressing CCR7 [1] | pEC50 of Gα13 activation (NanoBRET, G protein dissociation), CHO-K1 cells expressing CCR7 [1] | pEC50 of Gα13 activation (NanoBRET, G protein dissociation), U87 cells expressing CCR7 [1] | pEC50 of Gα15 activation (NanoBRET, G protein dissociation), CHO-K1 cells expressing CCR7 [1] | pEC50 of Gα15 activation (NanoBRET, G protein dissociation), HEK293A cells expressing CCR7 [1] | pEC50 of Gαi1 activation (NanoBRET, G protein dissociation), CHO-K1 cells expressing CCR7 [1] | pEC50 of Gαi1 activation (NanoBRET, G protein dissociation), HEK293A cells expressing CCR7 [1] | pEC50 of Gαi1 activation (NanoBRET, G protein dissociation), U87 cells expressing CCR7 [1] | pEC50 of Gαi2 activation (NanoBRET, G protein dissociation), CHO-K1 cells expressing CCR7 [1] | pEC50 of Gαi2 activation (NanoBRET, G protein dissociation), HEK293A cells expressing CCR7 [1] | pEC50 of Gαi2 activation (NanoBRET, G protein dissociation), U87 cells expressing CCR7 [1] | pEC50 of Gαi3 activation (NanoBRET, G protein dissociation), CHO-K1 cells expressing CCR7 [1] | pEC50 of Gαi3 activation (NanoBRET, G protein dissociation), HEK293A cells expressing CCR7 [1] | pEC50 of Gαi3 activation (NanoBRET, G protein dissociation), U87 cells expressing CCR7 [1] | pEC50 of GαoA activation (NanoBRET, G protein dissociation), CHO-K1 cells expressing CCR7 [1] | pEC50 of GαoA activation (NanoBRET, G protein dissociation), HEK293A cells expressing CCR7 [1] | pEC50 of GαoA activation (NanoBRET, G protein dissociation), U87 cells expressing CCR7 [1] | pEC50 of GαoB activation (NanoBRET, G protein dissociation), CHO-K1 cells expressing CCR7 [1] | pEC50 of GαoB activation (NanoBRET, G protein dissociation), HEK293A cells expressing CCR7 [1] | further results
1 | CC chemokine ligand 21 (CCL21) (from UniProt O00585 24-134) | 6.79 -log10(M) | 7.5 -log10(M) | 8.53 -log10(M) | 8.7 -log10(M) | 7.56 -log10(M) | 6.74 -log10(M) | 8.37 -log10(M) | 8.47 -log10(M) | 8.02 -log10(M) | 8.91 -log10(M) | 8.76 -log10(M) | 8.27 -log10(M) | 8.84 -log10(M) | 9.33 -log10(M) | 8.6 -log10(M) | 9.27 -log10(M) | 7.97 -log10(M) | 8.33 -log10(M) | 8.97 -log10(M) | 8.34 -log10(M) | pEC50 of Gα12 activation (NanoBRET, G protein dissociation), CHO-K1 cells expressing CCR7 [1]: 7.94 -log10(M); pEC50 of GαoB activation (NanoBRET, G protein dissociation), U87 cells expressing CCR7 [1]: 8.45 -log10(M); pEC50 of Gαq activation (NanoBRET, G protein dissociation), CHO-K1 cells expressing CCR7 [1]: 8.45 -log10(M); pEC50 of Gαq activation (NanoBRET, G protein dissociation), U87 cells expressing CCR7 [1]: 8.1 -log10(M); pEC50 of GαsL activation (NanoBRET, G protein dissociation), HEK293A cells expressing CCR7 [1]: 6.79 -log10(M); pEC50 of GαsL activation (NanoBRET, G protein dissociation), U87 cells expressing CCR7 [1]: 8.99 -log10(M); pEC50 of GαsS activation (NanoBRET, G protein dissociation), CHO-K1 cells expressing CCR7 [1]: 8.1 -log10(M); pEC50 of GαsS activation (NanoBRET, G protein dissociation), U87 cells expressing CCR7 [1]: 8.39 -log10(M); pEC50 of β-arrestin1 (Arrβ1) recruitment to CCR7 (NanoBRET), CHO-K1 cells [2]: 7.52 -log10(M); pEC50 of β-arrestin1 (Arrβ1) recruitment to CCR7 (NanoBRET), HEK293A cells [2]: 7.15 -log10(M); pEC50 of β-arrestin1 (Arrβ1) recruitment to CCR7 (NanoBRET), U87 cells [2]: 6.9 -log10(M); pEC50 of β-arrestin2 (Arrβ2) recruitment to CCR7 (NanoBRET), CHO-K1 cells [2]: 7.69 -log10(M); pEC50 of β-arrestin2 (Arrβ2) recruitment to CCR7 (NanoBRET), HEK293A cells [2]: 7.02 -log10(M); pEC50 of β-arrestin2 (Arrβ2) recruitment to CCR7 (NanoBRET), U87 cells [2]: 7.01 -log10(M)
2 | CC chemokine ligand 19 (CCL19) (from UniProt Q99731 22-98) | 7.44 -log10(M) | 7.81 -log10(M) | 8.87 -log10(M) | 8.77 -log10(M) | 8.91 -log10(M) | 7.8 -log10(M) | 8.54 -log10(M) | 8.63 -log10(M) | 8.28 -log10(M) | 8.69 -log10(M) | 9.03 -log10(M) | 8.56 -log10(M) | 8.84 -log10(M) | 9.61 -log10(M) | 8.87 -log10(M) | 9.37 -log10(M) | 8.3 -log10(M) | 8.59 -log10(M) | 8.96 -log10(M) | 8.85 -log10(M) | pEC50 of GαoB activation (NanoBRET, G protein dissociation), U87 cells expressing CCR7 [1]: 8.8 -log10(M); pEC50 of Gαq activation (NanoBRET, G protein dissociation), CHO-K1 cells expressing CCR7 [1]: 8.77 -log10(M); pEC50 of Gαq activation (NanoBRET, G protein dissociation), U87 cells expressing CCR7 [1]: 8.41 -log10(M); pEC50 of GαsL activation (NanoBRET, G protein dissociation), CHO-K1 cells expressing CCR7 [1]: 8.97 -log10(M); pEC50 of GαsL activation (NanoBRET, G protein dissociation), HEK293A cells expressing CCR7 [1]: 7.49 -log10(M); pEC50 of GαsL activation (NanoBRET, G protein dissociation), U87 cells expressing CCR7 [1]: 8.95 -log10(M); pEC50 of GαsS activation (NanoBRET, G protein dissociation), CHO-K1 cells expressing CCR7 [1]: 8.58 -log10(M); pEC50 of GαsS activation (NanoBRET, G protein dissociation), U87 cells expressing CCR7 [1]: 8.65 -log10(M); pEC50 of β-arrestin1 (Arrβ1) recruitment to CCR7 (NanoBRET), CHO-K1 cells [2]: 7.92 -log10(M); pEC50 of β-arrestin1 (Arrβ1) recruitment to CCR7 (NanoBRET), HEK293A cells [2]: 7.46 -log10(M); pEC50 of β-arrestin1 (Arrβ1) recruitment to CCR7 (NanoBRET), U87 cells [2]: 7.86 -log10(M); pEC50 of β-arrestin2 (Arrβ2) recruitment to CCR7 (NanoBRET), CHO-K1 cells [2]: 8.11 -log10(M); pEC50 of β-arrestin2 (Arrβ2) recruitment to CCR7 (NanoBRET), HEK293A cells [2]: 7.57 -log10(M); pEC50 of β-arrestin2 (Arrβ2) recruitment to CCR7 (NanoBRET), U87 cells [2]: 7.86 -log10(M)
